Assay results from publication PMC10445101, “A neutralizable dimeric anti-thrombin aptamer with potent anticoagulant activity in mice”.

How the values were obtained:
alpha-thrombin (human) [1] = biological target: T1, alpha-thrombin (human) (Homo sapiens, UniProt P00734;P00734 315-363;364-622); assay: SPR; SPR (Biacore X100, CM5, single-cycle kinetics, 1:1 fit): PBS pH 7.4, 0.05% (v/v) Tween 20; aptamers annealed in PBS (95 to 25 C); 1 M NaCl regeneration; assay t
alpha-thrombin (mouse) [2] = biological target: T2, alpha-thrombin (mouse) (Mus musculus, UniProt P19221;P19221 312-360;361-618); assay: SPR; SPR (Biacore X100, CM5, single-cycle kinetics, 1:1 fit): PBS pH 7.4, 0.05% (v/v) Tween 20; aptamers annealed in PBS (95 to 25 C); 1 M NaCl regeneration; assay temperature not stated; conditions: protein: commercial, copies: 1;1
alpha-thrombin (human) [3] = biological target: T1, alpha-thrombin (human); assay: SPR; 1:1 approximation; SPR (Biacore X100, CM5, single-cycle kinetics, 1:1 fit): PBS pH 7.4, 0.05% (v/v) Tween 20; aptamers annealed in PBS (95 to 25 C); 1 M NaCl regeneration; assay t
alpha-thrombin (mouse) [4] = biological target: T2, alpha-thrombin (mouse); assay: SPR; 1:1 approximation; SPR (Biacore X100, CM5, single-cycle kinetics, 1:1 fit): PBS pH 7.4, 0.05% (v/v) Tween 20; aptamers annealed in PBS (95 to 25 C); 1 M NaCl regeneration; assay temperature not stated; conditions: protein: commercial; copies: 1;1; pseudo-circular, 17 bp duplex linker

B1: Pse08-08 (M08s-ds17-M08s) (structured_DNA)
DNA: GTCACTAGAGGTCAGATGATGGGGATGGGGGGTTGGAGGAATGGATGACCTCTAGTGACTGATTTACGAGGTCAGATGATGGGGATGGGGGGTTGGAGGAATGGATGACCTCGTAAATCA
Kd (alpha-thrombin (human) [1]): 0.4 nM
Kd (alpha-thrombin (mouse) [2]; pseudo-circular, 17 bp duplex linker): 4.2 nM

AGGTCAGATGATGGGGATGGGGGGTTGGAGGAATGGATGACCT (structured_DNA) [M08s-1 (M08s)]
Kd (alpha-thrombin (human) [1]): 47.2 nM
Kd (alpha-thrombin (mouse) [2]; predicted G4 with stem): 495 nM

B2: Pse08-29 (M08s-ds17-TBA29) (structured_DNA)
DNA: GTCACTAGAGGTCAGATGATGGGGATGGGGGGTTGGAGGAATGGATGACCTCTAGTGACTGATTTACGAGTCCGTGGTAGGGCAGGTTGGGGTGACTCGTAAATCA
Kd (alpha-thrombin (human) [3]): 2.6 nM
Kd (alpha-thrombin (mouse) [4]): 6.3 nM

AGTCCGTGGTAGGGCAGGTTGGGGTGACT (structured_DNA) [TBA29 (HD22)]
Kd (alpha-thrombin (human) [1]): 36.9 nM
Kd (alpha-thrombin (mouse) [2]): 22 nM
